Article PMC12614216

Experiments:
[1] = biological target: OrfL (OB-fold protein encoded by ICESt3 of Streptococcus thermophilus), purified, untagged (Streptococcus thermophilus (ICESt3)); assay: SEC-MALS; isolated OrfM or OrfL at 30 µM; Superdex 200 Increase 10/300 GL; 20 mM Tris-HCl pH 7.5, 150 mM NaCl; monomer and dimer
[2] = biological target: OrfL (OB-fold protein encoded by ICESt3 of Streptococcus thermophilus), purified, untagged (Streptococcus thermophilus (ICESt3)); assay: switchSENSE (fluorescence proximity sensing); OrfL covalently coupled to a 48-mer DNA nanolever on the chip; OrfM injected at 0.625 to 10 µM; PE40 buffer (10 mM NaP pH 7.4, 40 mM NaCl, 0.05% Tween 20); 25°C
[3] = biological target: OrfM (OB-fold protein encoded by ICESt3 of Streptococcus thermophilus), purified, untagged (Streptococcus thermophilus (ICESt3)); assay: SEC-MALS; isolated OrfM or OrfL at 30 µM; Superdex 200 Increase 10/300 GL; 20 mM Tris-HCl pH 7.5, 150 mM NaCl; monomer and dimer
[4] = biological target: OrfL (OB-fold protein encoded by ICESt3 of Streptococcus thermophilus), purified, untagged (Streptococcus thermophilus (ICESt3)); assay: SEC-MALS; OrfL and OrfM mixed at 1:1 and 2:1 OrfL:OrfM molar ratios; Superdex 200 Increase 10/300 GL; 20 mM Tris-HCl pH 7.5, 150 mM NaCl
[5] = biological target: OrfL (OB-fold protein encoded by ICESt3 of Streptococcus thermophilus), purified, untagged (Streptococcus thermophilus (ICESt3)); assay: ITC; OrfM at 280 µM injected into OrfL at 28 µM; 298 K; 20 mM Tris-HCl pH 7.5, 300 mM NaCl; single binding site model

stoichiometry N [1] | Kd [2] [nM] | koff [2] [s⁻¹] | kon [2] [M⁻¹ s⁻¹] | fraction of the injected protein found as dimer [3] [%] | stoichiometry N [3] | fraction of the sample found as the complex (1:1 ratio) [4] [%] | stoichiometry N [4] | Ka [5] [M⁻¹] | Kd [5] [nM] | dH [5] [kcal/mol] | stoichiometry N [5] | Substance
2 | – | – | – | – | – | – | – | – | – | – | – | OrfL (OB-fold protein encoded by ICESt3 of Streptococcus thermophilus), purified, untagged (natural protein)
– | 311 | 0.019 | 62000 | 5 | 2 | 92 | 1 | 7.1e+06 | 140 | -35.9 | 0.87 | OrfM (OB-fold protein encoded by ICESt3 of Streptococcus thermophilus), purified, untagged (natural protein)
